This note sets out measurements from patent US20220162291A1 (DUKE UNIVERSITY, published 2022).

B1: 33B8 (antibody, V domains shown)
VH: EVKLVESGGGLVQPGGSLSLSCATSGFTFTDYYMNWVRQPPGKALEWLGFIRNKANGYTTEYSASVKGRFTISRDNSQSILYLQMNSLRAEDSATYYCACGNYVGYAMDYWGQGTSVTVSS
VL: DIVMSQSPSSLAVSAGEKVTMSCKSSQSLLNSRTRKNYLAWYQQKPGQSPKLLIYWASTRESGVPDRFTGSGSGTDFTLTISSVQAEDLAVYYCKQSYNLYTFGGGTKLEIKR
notes: Recombinant mouse IgG (made as IgG1 and IgG2c)
B2: 22D10 (antibody, V domains shown)
VH: DVQLQESGPALVKPSQTVSLTCTVTGYSITNGNHWWNWIRQVSGSKLEWLGYIRSSGSSDSNPSLKSRISITRDTSKNQLFLHLNSMTTEDIATYYCARGGGLRHYFDYWGQGTTLTVSS
VL: DIQMTQSPASLSASVGDTVTITCRASGNIHNYLAWYHQKQGKSPQLLVYHAETLTDGVPSRFSGSGSGTQYSLKINSLQPEDFGSYYCQHFWSTPYTFGGGTKLEIKR
notes: as for B1
B3: HSV010-28 (antibody, V domains shown)
VH: QIQLVQSGPELKKPGETVKISCKASGYTFTTYGMSWVKQAPGKGLKWMGWINTYSGVSTYADDFKGRFAFSLETSASTAYLQINNLKNEDTATYFCAQVNYAMDYWGQGTSVTVSS
VL: DIVMTQSHKFLSTSVGDWVTITCKASQDVSTAVAWFQQKPGQSPKVLIYSASYRYTGVPDRFTGSGSGTDFTFTISSVQAEDLAVYYCQQHYSTPRTFGGGTKLEIKR
notes: Mouse monoclonal IgG
B4: HSV010-7 (antibody, V domains shown)
VH: QVQLQQSGPELVKPGASVKLSCKASGYTFTNYDINWVKQRPGQGLEWIGWIYPRDGSTKYNEKFKGKATLTIDTSSSTAYMELHSLTSEDSAVYFCARGIFYVNYDVYWGQGTLVTVSA
VL: DIQMTQSSSFLSVSLGGRVTITCKASDHINNWLAWYQQKPGHAPRLLISGAASLETGVPSRFSGSGSGKDYTLTITSLQTEDVATYYCQQYWSSPLTFGGGTKLELKR
notes: Mouse monoclonal IgG
B5: HSV010-34 (antibody, V domains shown)
VH: EVQLVESGGGLVQPGESLKLSCESNEYEFPSHDMSWVRKTPEKRLELVAAINSDGGSTYYPDTMERRFIISRDNTKKTLYLQMSSLRSEDTALYYCARHSSGYVLDYWGQGTSVTVSS
VL: B4 VL with F10Y, N31H, H42N, A52T, T74S, T76A, S94T, L96Y, L106I
notes: Mouse monoclonal IgG
B6: HSV010-4 (antibody, V domains shown)
VH: QVQLKESGPGLVAPSQSLSITCTVSGFSLSRHDVSWVRQPPGKGLEWLGVIWGDGSTNYHSALISRLSISKDNSKSQVFLKLNSLQNDDTATYYCAKEDYGIFPYWGQGTLVTVSA
VL: DIKMTQSPSSMYASLGEKVTITCKASQDISSYLSWFQQKPGKSPKTLIYRANRLVDGVPSRFSGSGSGQDYSLSISSLDYEDMGIYYCLQYDEFPLTFGAGTKLELKR
notes: Mouse monoclonal IgG

Numbering of substitutions follows the chain as printed.

One assay has as its target T1, glycoprotein B of HSV-1 (gB-1) (HSV-1, UniProt P10211 31-730). Description: Luminex multiplex assay on gB-1-conjugated microspheres.
Method: The gB-1 binding of the antibodies was determined by Luminex multiplex assay. Mixtures of antigen (gB-1)-conjugated microspheres (1,000 counts each) were added to each well of 96-well filter plates (Millipore). […] Samples were diluted in PBS containing 1% cow milk, 1% BSA, 0.05% Tween 20 and 0.05% NaN₃. After washing, PE goat anti-mouse IgG was added to the plates and incubated for 1 hour at room temperature with mild agitation. After washing, microspheres were resuspended in PBS containing 1% BSA, 0.05% Tween 20 and 0.05% NaN₃ and fluorescent signals from each microsphere were measured in a Bio-Plex® 3D machine.
Take B1: the binding result is “no binding”.
Still for that read-out and setting: to B2 belongs “no binding”.

Another assay addresses T1, glycoprotein B of HSV-1 (gB-1). The assay is described as follows: Luminex bead competition on gB-1; competitor BMPC-23 human IgG at 2 ng/ml.
Regarding B3, the “percent inhibition at 222 ng/ml” value came to 30%.
For B4, the “percent inhibition at 222 ng/ml” value was > 90%.
With B5, the “percent inhibition at 222 ng/ml” value is > 80%.
Still for that read-out and setting: to B6 belongs > 95%.
